Residue numbers refer to the chain shown, from its start. Values joined by “and” are separate entries in the source; they are usually repeats but may differ in a detail not shown here. Equal entries are not always repeated.
B1: Trastuzumab HCDR3 variant ARNYYDLYYYFDY (Fab, V domains shown)
VH: EVQLVESGGGLVQPGGSLRLSCAASGFNIKDTYIHWVRQAPGKGLEWVARIYPTNGYTRYADSVKGRFTISADTSKNTAYLQMNSLRAEDTAVYYCARNYYDLYYYFDYWGQGTLVTVSS
VL: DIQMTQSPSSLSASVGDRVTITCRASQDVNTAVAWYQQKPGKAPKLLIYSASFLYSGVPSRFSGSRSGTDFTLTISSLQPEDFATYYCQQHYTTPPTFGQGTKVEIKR
B2: Trastuzumab HCDR3 variant ARWYYYGRYYFDY (Fab, V domains shown)
VH: B1 VH with N99W, D102Y, L103G, Y104R
VL: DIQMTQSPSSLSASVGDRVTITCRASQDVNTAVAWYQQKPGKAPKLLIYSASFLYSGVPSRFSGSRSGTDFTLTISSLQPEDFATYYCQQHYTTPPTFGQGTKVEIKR
B3: Trastuzumab HCDR3 variant ARWGEFGPYYFDY (Fab, V domains shown)
VH: B1 VH with N99W, Y100G, Y101E, D102F, L103G, Y104P
VL: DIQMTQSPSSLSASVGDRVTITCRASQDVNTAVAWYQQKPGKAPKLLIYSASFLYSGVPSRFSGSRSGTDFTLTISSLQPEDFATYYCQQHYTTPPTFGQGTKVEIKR
B4: Trastuzumab HCDR3 variant ARWLRALGYYMDY (Fab, V domains shown)
VH: B1 VH with N99W, Y100L, Y101R, D102A, Y104G, F107M
VL: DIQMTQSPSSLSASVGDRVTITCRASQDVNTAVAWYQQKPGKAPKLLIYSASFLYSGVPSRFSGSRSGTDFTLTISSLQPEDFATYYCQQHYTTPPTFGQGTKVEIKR
B5: Trastuzumab HCDR3 variant ARWYGYGGYYFDY (Fab, V domains shown)
VH: B1 VH with N99W, Y101G, D102Y, L103G, Y104G
VL: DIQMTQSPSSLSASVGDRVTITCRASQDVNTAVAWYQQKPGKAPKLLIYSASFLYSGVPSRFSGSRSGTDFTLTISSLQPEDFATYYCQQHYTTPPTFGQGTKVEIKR
B6: Trastuzumab HCDR3 variant ARWGGYGYYYMDV (Fab, V domains shown)
VH: B1 VH with N99W, Y100G, Y101G, D102Y, L103G, F107M, Y109V
VL: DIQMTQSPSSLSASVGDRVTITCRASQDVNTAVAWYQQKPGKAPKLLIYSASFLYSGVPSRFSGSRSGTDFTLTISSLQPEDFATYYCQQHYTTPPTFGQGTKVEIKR
B7: Trastuzumab HCDR3 variant ARWGYDYYYYFDV (Fab, V domains shown)
VH: B1 VH with N99W, Y100G, L103Y, Y109V
VL: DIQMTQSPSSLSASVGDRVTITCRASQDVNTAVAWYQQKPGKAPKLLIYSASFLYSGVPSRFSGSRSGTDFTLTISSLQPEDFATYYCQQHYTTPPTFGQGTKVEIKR
B8: Trastuzumab HCDR3 variant ARYLQLGPYYFDY (Fab, V domains shown)
VH: B1 VH with N99Y, Y100L, Y101Q, D102L, L103G, Y104P
VL: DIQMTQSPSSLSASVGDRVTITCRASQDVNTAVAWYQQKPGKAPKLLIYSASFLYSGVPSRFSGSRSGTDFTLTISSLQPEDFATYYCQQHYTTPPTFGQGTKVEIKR
B9: Trastuzumab HCDR3 variant ARWRGDGGYYFDY (Fab, V domains shown)
VH: B1 VH with N99W, Y100R, Y101G, L103G, Y104G
VL: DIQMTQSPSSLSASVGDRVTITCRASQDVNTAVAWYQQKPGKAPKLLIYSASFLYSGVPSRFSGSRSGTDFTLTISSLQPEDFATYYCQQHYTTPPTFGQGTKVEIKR
B10: Trastuzumab HCDR3 variant ARWPGYGSYYMDV (Fab, V domains shown)
VH: B1 VH with N99W, Y100P, Y101G, D102Y, L103G, Y104S, F107M, Y109V
VL: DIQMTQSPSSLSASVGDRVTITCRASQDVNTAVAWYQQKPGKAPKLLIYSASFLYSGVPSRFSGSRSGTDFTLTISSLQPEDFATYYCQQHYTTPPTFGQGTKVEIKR
B11: Trastuzumab HCDR3 variant ARWGYDYYYAMDY (Fab, V domains shown)
VH: B1 VH with N99W, Y100G, L103Y, Y106A, F107M
VL: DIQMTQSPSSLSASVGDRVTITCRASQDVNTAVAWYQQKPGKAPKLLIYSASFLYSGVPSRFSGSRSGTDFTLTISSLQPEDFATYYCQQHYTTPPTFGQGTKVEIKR
B12: Trastuzumab HCDR3 variant ARWYYYGGYYFDY (Fab, V domains shown)
VH: B1 VH with N99W, D102Y, L103G, Y104G
VL: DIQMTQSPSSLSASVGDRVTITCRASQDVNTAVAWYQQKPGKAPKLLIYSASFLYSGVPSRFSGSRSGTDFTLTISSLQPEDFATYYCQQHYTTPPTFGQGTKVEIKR
B13: Trastuzumab HCDR3 variant ARYFYDYYYYFDF (Fab, V domains shown)
VH: B1 VH with N99Y, Y100F, L103Y, Y109F
VL: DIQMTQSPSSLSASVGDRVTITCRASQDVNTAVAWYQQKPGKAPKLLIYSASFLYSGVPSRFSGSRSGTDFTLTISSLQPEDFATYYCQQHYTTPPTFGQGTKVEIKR
B14: Trastuzumab HCDR3 variant ARYDPYGFYHLDY (Fab, V domains shown)
VH: B1 VH with N99Y, Y100D, Y101P, D102Y, L103G, Y104F, Y106H, F107L
VL: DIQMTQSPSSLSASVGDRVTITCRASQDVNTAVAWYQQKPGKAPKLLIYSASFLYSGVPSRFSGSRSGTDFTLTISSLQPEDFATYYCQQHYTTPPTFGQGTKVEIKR
B15: Trastuzumab HCDR3 variant ARYAHYGPYYFDF (Fab, V domains shown)
VH: B1 VH with N99Y, Y100A, Y101H, D102Y, L103G, Y104P, Y109F
VL: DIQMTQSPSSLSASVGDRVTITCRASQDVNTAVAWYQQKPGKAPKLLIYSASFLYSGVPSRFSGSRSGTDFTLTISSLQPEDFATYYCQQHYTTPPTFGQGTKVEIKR
B16: Trastuzumab HCDR3 variant ARYEAYGLYPFGY (Fab, V domains shown)
VH: B1 VH with N99Y, Y100E, Y101A, D102Y, L103G, Y104L, Y106P, D108G
VL: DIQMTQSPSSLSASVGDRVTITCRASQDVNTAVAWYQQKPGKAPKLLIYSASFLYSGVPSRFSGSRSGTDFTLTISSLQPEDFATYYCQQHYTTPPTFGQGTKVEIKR
B17: Trastuzumab HCDR3 variant ARYGSGYYYYFDY (Fab, V domains shown)
VH: B1 VH with N99Y, Y100G, Y101S, D102G, L103Y
VL: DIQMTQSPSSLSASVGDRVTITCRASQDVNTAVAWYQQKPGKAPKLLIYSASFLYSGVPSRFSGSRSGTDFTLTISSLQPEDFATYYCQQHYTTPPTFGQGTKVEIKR
B18: Trastuzumab HCDR3 variant ARYGDGYYYYFAY (Fab, V domains shown)
VH: B1 VH with N99Y, Y100G, Y101D, D102G, L103Y, D108A
VL: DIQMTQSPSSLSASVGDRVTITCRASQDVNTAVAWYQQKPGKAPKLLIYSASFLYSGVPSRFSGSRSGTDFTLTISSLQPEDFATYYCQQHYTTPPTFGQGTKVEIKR
B19: Trastuzumab HCDR3 variant ARYGSSYYYYFDY (Fab, V domains shown)
VH: B1 VH with N99Y, Y100G, Y101S, D102S, L103Y
VL: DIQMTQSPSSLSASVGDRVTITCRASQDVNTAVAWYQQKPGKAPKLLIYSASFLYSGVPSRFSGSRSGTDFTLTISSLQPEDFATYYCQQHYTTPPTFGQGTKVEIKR
B20: Trastuzumab HCDR3 variant ARYGGGGRYYFDY (Fab, V domains shown)
VH: B1 VH with N99Y, Y100G, Y101G, D102G, L103G, Y104R
VL: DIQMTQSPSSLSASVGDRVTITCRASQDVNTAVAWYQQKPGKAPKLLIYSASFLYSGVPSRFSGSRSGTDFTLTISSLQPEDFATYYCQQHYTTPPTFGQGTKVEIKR
B21: Trastuzumab HCDR3 variant ARWGYYGNYYFDY (Fab, V domains shown)
VH: B1 VH with N99W, Y100G, D102Y, L103G, Y104N
VL: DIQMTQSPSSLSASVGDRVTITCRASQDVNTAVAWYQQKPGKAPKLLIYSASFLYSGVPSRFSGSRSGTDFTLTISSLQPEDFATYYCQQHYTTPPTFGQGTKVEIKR
B22: Trastuzumab HCDR3 variant ARWGGPGYYAFVW (Fab, V domains shown)
VH: B1 VH with N99W, Y100G, Y101G, D102P, L103G, Y106A, D108V, Y109W
VL: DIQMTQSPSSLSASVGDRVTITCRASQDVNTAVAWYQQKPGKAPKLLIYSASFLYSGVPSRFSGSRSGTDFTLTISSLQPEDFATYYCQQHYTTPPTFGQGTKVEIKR
B23: Trastuzumab HCDR3 variant ARYGSRYYYYFDY (Fab, V domains shown)
VH: B1 VH with N99Y, Y100G, Y101S, D102R, L103Y
VL: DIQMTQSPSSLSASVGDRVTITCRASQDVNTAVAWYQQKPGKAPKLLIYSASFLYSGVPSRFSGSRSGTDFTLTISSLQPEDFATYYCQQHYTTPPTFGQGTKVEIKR
B24: Trastuzumab HCDR3 variant ARYGVYPFYYFDY (Fab, V domains shown)
VH: B1 VH with N99Y, Y100G, Y101V, D102Y, L103P, Y104F
VL: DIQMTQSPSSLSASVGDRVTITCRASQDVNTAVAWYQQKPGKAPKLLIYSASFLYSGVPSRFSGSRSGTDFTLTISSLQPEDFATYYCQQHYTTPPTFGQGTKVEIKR
B25: Trastuzumab HCDR3 variant ARWYYGYYYYFDV (Fab, V domains shown)
VH: B1 VH with N99W, D102G, L103Y, Y109V
VL: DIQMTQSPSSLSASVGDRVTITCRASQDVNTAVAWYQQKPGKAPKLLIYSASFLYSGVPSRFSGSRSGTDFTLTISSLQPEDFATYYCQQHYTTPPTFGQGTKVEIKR
B26: Trastuzumab HCDR3 variant ARWGYGGYYYFDY (Fab, V domains shown)
VH: B1 VH with N99W, Y100G, D102G, L103G
VL: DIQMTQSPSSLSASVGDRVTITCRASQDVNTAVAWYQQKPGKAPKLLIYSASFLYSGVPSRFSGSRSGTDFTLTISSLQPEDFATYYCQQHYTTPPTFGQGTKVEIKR
B27: Trastuzumab HCDR3 variant ARWWGGGAYYFDY (Fab, V domains shown)
VH: B1 VH with N99W, Y100W, Y101G, D102G, L103G, Y104A
VL: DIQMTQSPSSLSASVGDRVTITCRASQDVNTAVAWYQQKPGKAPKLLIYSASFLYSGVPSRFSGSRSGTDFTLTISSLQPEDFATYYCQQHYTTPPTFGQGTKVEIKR
B28: Trastuzumab HCDR3 variant ARWPFYGPYNYDY (Fab, V domains shown)
VH: B1 VH with N99W, Y100P, Y101F, D102Y, L103G, Y104P, Y106N, F107Y
VL: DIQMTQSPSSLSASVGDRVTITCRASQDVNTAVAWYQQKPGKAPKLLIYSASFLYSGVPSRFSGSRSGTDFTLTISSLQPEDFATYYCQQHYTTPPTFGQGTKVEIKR
B29: Trastuzumab HCDR3 variant ARWYGGGYYYMDY (Fab, V domains shown)
VH: B1 VH with N99W, Y101G, D102G, L103G, F107M
VL: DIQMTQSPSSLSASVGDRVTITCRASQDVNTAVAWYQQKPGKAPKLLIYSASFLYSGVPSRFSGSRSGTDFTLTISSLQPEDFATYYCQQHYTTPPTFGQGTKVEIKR
B30: Trastuzumab HCDR3 variant ARWDSGGPYYFDS (Fab, V domains shown)
VH: B1 VH with N99W, Y100D, Y101S, D102G, L103G, Y104P, Y109S
VL: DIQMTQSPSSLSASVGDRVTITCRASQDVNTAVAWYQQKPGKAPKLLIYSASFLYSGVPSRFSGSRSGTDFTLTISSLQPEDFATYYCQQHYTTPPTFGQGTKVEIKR
B31: Trastuzumab HCDR3 variant ARWGYGYSYYFDV (Fab, V domains shown)
VH: B1 VH with N99W, Y100G, D102G, L103Y, Y104S, Y109V
VL: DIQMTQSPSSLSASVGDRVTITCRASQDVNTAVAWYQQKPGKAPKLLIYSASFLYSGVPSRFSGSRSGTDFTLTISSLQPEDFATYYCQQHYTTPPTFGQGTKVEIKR
B32: Trastuzumab HCDR3 variant ARWTERGFYSFDI (Fab, V domains shown)
VH: B1 VH with N99W, Y100T, Y101E, D102R, L103G, Y104F, Y106S, Y109I
VL: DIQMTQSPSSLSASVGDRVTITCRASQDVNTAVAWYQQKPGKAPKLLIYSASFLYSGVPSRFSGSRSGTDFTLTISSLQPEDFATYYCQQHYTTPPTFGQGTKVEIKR
B33: Trastuzumab HCDR3 variant ARWLGSGYYWFDY (Fab, V domains shown)
VH: B1 VH with N99W, Y100L, Y101G, D102S, L103G, Y106W
VL: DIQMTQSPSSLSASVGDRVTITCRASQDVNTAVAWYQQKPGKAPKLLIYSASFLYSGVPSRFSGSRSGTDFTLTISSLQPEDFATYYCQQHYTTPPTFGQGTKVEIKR
B34: Trastuzumab HCDR3 variant ARWGYSGWYVMDY (Fab, V domains shown)
VH: B1 VH with N99W, Y100G, D102S, L103G, Y104W, Y106V, F107M
VL: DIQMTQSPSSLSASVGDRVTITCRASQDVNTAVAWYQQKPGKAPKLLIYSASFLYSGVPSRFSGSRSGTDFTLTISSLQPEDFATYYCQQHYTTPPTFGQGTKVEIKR
B35: Trastuzumab HCDR3 variant ARYGYYGPYYFDY (Fab, V domains shown)
VH: B1 VH with N99Y, Y100G, D102Y, L103G, Y104P
VL: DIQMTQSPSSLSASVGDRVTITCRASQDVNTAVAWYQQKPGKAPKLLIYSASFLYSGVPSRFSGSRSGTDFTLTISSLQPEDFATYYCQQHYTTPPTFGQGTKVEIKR
B36: Trastuzumab HCDR3 variant ARWLGEGYYNFDY (Fab, V domains shown)
VH: B1 VH with N99W, Y100L, Y101G, D102E, L103G, Y106N
VL: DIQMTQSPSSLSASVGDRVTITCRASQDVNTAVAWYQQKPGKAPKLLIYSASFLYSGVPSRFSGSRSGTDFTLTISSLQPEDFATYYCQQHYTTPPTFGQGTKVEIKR
B37: Trastuzumab HCDR3 variant ARWYYYGGYYFDV (Fab, V domains shown)
VH: B1 VH with N99W, D102Y, L103G, Y104G, Y109V
VL: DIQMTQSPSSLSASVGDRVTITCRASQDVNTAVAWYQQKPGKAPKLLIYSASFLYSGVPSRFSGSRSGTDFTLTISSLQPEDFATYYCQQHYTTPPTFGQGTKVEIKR
B38: Trastuzumab HCDR3 variant ARWGSIGYYAFDH (Fab, V domains shown)
VH: B1 VH with N99W, Y100G, Y101S, D102I, L103G, Y106A, Y109H
VL: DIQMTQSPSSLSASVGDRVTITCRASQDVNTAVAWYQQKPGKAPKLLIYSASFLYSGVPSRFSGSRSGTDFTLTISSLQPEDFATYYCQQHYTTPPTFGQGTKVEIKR
B39: Trastuzumab HCDR3 variant ARWLAGYNYYFDV (Fab, V domains shown)
VH: B1 VH with N99W, Y100L, Y101A, D102G, L103Y, Y104N, Y109V
VL: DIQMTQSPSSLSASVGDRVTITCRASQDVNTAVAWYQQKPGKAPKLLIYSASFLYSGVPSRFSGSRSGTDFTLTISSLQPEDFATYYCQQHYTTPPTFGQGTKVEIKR

biological target: T1, HER2 (human epidermal growth factor receptor 2) (human, UniProt P04626 23-629); test: SPR
T1 construct: also called Antigen: HER2

B1 was tested. Which Kd did it give?
The Kd was 8.41 nM.

And the “log(KD (M))” value?
The value was -8.08.

For B2, which Kd is on record?
Its Kd is 11 nM.

And the “log(KD (M))” value?
Its value is -7.96.

With B3 as the binder, how does the Kd read?
The Kd was 9.24 nM.

And the “log(KD (M))” value?
The value was -8.03.

Which results are given for B4?
Kd: 15.9 nM and 15.8 nM; log(KD (M)): -7.8

What does the source list for B5?
Kd: 7.43 nM; log(KD (M)): -8.13

For B6, which Kd is on record?
The Kd was 8.78 nM.

And the “log(KD (M))” value?
Its value is -8.06.

Which results are given for B7?
Kd: 26.7 nM; log(KD (M)): -7.57

For B8, which Kd is on record?
The Kd was 14.7 nM.

And the “log(KD (M))” value?
The value was -7.83.

B9 was tested. Which Kd did it give?
Its Kd is 13.1 nM.

And the “log(KD (M))” value?
The value was -7.88.

For B10, which Kd is on record?
Its Kd is 4.83 nM.

And the “log(KD (M))” value?
Its value is -8.32.

Which results are given for B11?
Kd: 19.4 nM; log(KD (M)): -7.71

B12 was tested. Which Kd did it give?
Its Kd is 8.29 nM.

What about the “log(KD (M))” value of the same binder?
Its value is -8.08.

How did the Kd turn out when B13 was run?
Its Kd is 7.11 nM.

What about the “log(KD (M))” value of the same binder?
Its value is -8.15.

How did the Kd turn out when B14 was run?
The Kd was 24.2 nM.

What about the “log(KD (M))” value of the same binder?
The value was -7.62.

How did the Kd turn out when B15 was run?
Its Kd is 19.8 nM.

What about the “log(KD (M))” value of the same binder?
Its value is -7.7.

What does the source list for B16?
Kd: 3.39 nM; log(KD (M)): -8.47

Which Kd does the source give for B17 here?
Its Kd is 15.7 nM.

What about the “log(KD (M))” value of the same binder?
Its value is -7.8.

How did the Kd turn out when B18 was run?
Its Kd is 7.31 nM.

What about the “log(KD (M))” value of the same binder?
The value was -8.14.

With B19 as the binder, how does the Kd read?
Its Kd is 13.9 nM.

What about the “log(KD (M))” value of the same binder?
Its value is -7.86.

What does the source list for B20?
Kd: 19.6 nM; log(KD (M)): -7.71

Which results are given for B21?
Kd: 13.4 nM; log(KD (M)): -7.87

For B22, which Kd is on record?
Its Kd is 8.08 nM.

And the “log(KD (M))” value?
The value was -8.09.

Which Kd does the source give for B23 here?
The Kd was 15.7 nM.

What about the “log(KD (M))” value of the same binder?
Its value is -7.8.

For B24, which Kd is on record?
The Kd was 27 nM.

What about the “log(KD (M))” value of the same binder?
The value was -7.57.

With B25 as the binder, how does the Kd read?
The Kd was 7.04 nM.

What about the “log(KD (M))” value of the same binder?
The value was -8.15.

With B26 as the binder, how does the Kd read?
The Kd was 19.1 nM.

What about the “log(KD (M))” value of the same binder?
Its value is -7.72.

Which results are given for B27?
Kd: 14.9 nM; log(KD (M)): -7.83

Which Kd does the source give for B28 here?
Its Kd is 2.64 nM.

What about the “log(KD (M))” value of the same binder?
The value was -8.58.

Which Kd does the source give for B29 here?
The Kd was 11.8 nM.

And the “log(KD (M))” value?
Its value is -7.93.

For B30, which Kd is on record?
The Kd was 15.4 nM.

What about the “log(KD (M))” value of the same binder?
Its value is -7.81.

B31 was tested. Which Kd did it give?
Its Kd is 21.1 nM.

What about the “log(KD (M))” value of the same binder?
The value was -7.68.

What does the source list for B32?
Kd: 9.28 nM; log(KD (M)): -8.03

Which Kd does the source give for B33 here?
Its Kd is 10.9 nM.

And the “log(KD (M))” value?
The value was -7.96.

With B34 as the binder, how does the Kd read?
Its Kd is 6.93 nM.

What about the “log(KD (M))” value of the same binder?
The value was -8.16.

Which results are given for B35?
Kd: 14.3 nM; log(KD (M)): -7.84

B36 was tested. Which Kd did it give?
Its Kd is 3.42 nM.

And the “log(KD (M))” value?
Its value is -8.47.

Which results are given for B37?
Kd: 12.5 nM; log(KD (M)): -7.9

How did the Kd turn out when B38 was run?
The Kd was 20.5 nM.

And the “log(KD (M))” value?
The value was -7.69.

B39 was tested. Which Kd did it give?
Its Kd is 15.7 nM.

What about the “log(KD (M))” value of the same binder?
Its value is -7.8.

From patent US20250218531A1 (ABSCI, published 2025)
